Data published in article PMC3310817, “Liver X Receptors Regulate the Transcriptional Activity of the Glucocorticoid Receptor: Implications for the Carbohydrate Metabolism”.

B1: Classic GRE wt (dsDNA)
DNA 1: AGCTGGTACAAACTGTTCTAGCT
DNA 2: AGCTAGAACAGTTTGTACCAGCT
B2: G6Pase GRE wt (dsDNA)
DNA 1: GCACTGTCAAGCAGTGTGCCCAAGTTAATAATT
DNA 2: AATTATTAACTTGGGCACACTGCTTGACAGTGC

Columns and labels:
[1] = biological target: T1, LXRα (recombinant, Active Motif);RXRα (recombinant, Active Motif) (Homo sapiens;Homo sapiens, UniProt Q13133;P19793 1-447;1-462, |); assay: EMSA; GW3965 (enhances binding); EMSA: 10 mM HEPES pH 8.0, 0.1 mM EDTA, 2 mM DTT, 50 mM NaCl, 5 mM MgCl2, 50 mM KCl, 4 mM spermidine, 4% Ficoll, 1 ug poly(dI-dC); preincubation 10 min 4 C, then 15 min room temperature with probe; conditions: protein: commercial;commercial; tags: ;; copies: 1;1; label: 32P; blunt
[2] = biological target: T1, LXRα (recombinant, Active Motif);RXRα …; assay: EMSA; complex C; EMSA: 10 mM HEPES pH 8.0, 0.1 mM EDTA, 2 mM DTT, 50 mM NaCl, 5 mM MgCl2, 50 mM KCl, 4 mM spermidine, 4% Ficoll, 1 ug poly(dI-dC); preincubation 10 min 4 C, then 15 min room temperature with probe; conditions: protein: commercial;commercial; tags: ;; copies: 1;1; label: 32P; blunt

T1 sequence (Q13133 whole entry, chain 1 of 2): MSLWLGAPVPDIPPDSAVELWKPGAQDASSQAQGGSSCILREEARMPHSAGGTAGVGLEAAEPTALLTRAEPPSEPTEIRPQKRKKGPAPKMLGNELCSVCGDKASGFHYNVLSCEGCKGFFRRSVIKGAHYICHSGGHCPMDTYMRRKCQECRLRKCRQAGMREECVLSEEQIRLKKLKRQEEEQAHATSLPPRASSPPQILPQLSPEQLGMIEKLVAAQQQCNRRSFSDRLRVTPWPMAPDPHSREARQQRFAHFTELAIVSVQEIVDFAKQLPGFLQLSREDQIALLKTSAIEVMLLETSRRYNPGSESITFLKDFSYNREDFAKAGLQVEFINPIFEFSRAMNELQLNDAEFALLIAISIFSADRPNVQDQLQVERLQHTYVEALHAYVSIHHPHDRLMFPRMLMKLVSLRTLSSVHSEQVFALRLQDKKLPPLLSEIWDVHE
T1 sequence (P19793 whole entry, chain 2 of 2): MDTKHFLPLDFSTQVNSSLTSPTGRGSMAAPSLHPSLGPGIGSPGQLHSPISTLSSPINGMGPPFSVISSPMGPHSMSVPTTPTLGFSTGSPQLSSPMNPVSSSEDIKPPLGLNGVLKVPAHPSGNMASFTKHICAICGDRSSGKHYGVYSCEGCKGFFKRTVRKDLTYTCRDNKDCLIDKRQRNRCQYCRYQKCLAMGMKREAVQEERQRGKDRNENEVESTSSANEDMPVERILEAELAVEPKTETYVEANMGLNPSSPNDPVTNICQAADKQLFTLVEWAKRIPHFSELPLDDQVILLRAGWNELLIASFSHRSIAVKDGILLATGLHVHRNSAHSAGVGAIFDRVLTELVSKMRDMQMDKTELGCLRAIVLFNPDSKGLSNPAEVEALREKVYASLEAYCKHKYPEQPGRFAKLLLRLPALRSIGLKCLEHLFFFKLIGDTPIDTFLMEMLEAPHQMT

Binder	binding result [1]	binding result [2]
B1	binds	
B2		binds
